B1: TTP4000 (Fc fusion)
chain: QNITARIGEPLVLKCKGAPKKPPQRLEWKLNTGRTEAWKVLSPQGGGPWDSVARVLPNGSLFLPAVGIQDEGIFRCQAMNRNGKETKSNYRVRVYQIPGKPEIVDSASELTAGVPNKVGTCVSEGSYPAGTLSWHLDGKPLVPNEKGVSVKEQTRRHPETGLFTLQSELMVTPARGGDPRPTFSCSFSPGLPRHRALRTAPIQPRVWEPVPLEEVQLVVEPEGGAVAPPSVFLFPPKPKDTLMISRTPEVTCVVVDVSHEDPEVKFNWYVDGVEVHNAKTKPREEQYNSTYRVVSVLTVLHQDWLNGKEYKCKVSNKALPAPIEKTISKAKGQPREPQVYTLPPSRDELTKNQVSLTCLVKGFYPSDIAVEWESNGQPENNYKTTPPVLDSDGSFFLYSKLTVDKSRWQQGNVFSCSVMHEALHNHYTQKSLSLSPGK
modifications: N-terminal residue glutamine (Q) or pyroglutamic acid (pE) or a mixture thereof; glycosylation sites at N2 and N288 (numbering of the processed protein); C-terminal residue may be cleaved off
B2: RAGE fusion protein TTP-4000 (Fc fusion)
chain: B1 chain
modifications: N-terminal residue glutamine (Q) or pyroglutamic acid (pE) or a mixture thereof; glycosylation sites at N2 and N288 (numbering of the processed protein); C-terminal residue may be cleaved off

Legend:
Assay in all cases: saturation binding ELISA (immobilized ligand)
CML = molecular target: CML
S100b = molecular target: T1, S100b (UniProt P04271 2-92)
T1 chain: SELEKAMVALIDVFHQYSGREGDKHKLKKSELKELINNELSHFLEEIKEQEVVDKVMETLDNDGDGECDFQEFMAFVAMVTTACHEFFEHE

amphoterin = molecular target: T2, amphoterin (UniProt P09429 1-215)
T2 chain: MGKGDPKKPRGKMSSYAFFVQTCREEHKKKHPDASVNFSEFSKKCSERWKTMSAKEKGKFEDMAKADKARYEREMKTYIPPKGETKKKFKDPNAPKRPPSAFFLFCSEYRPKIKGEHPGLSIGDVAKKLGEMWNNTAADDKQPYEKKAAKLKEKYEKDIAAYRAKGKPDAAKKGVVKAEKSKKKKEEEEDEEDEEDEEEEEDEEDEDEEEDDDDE

| Binder | Kd (CML) | Kd (S100b) | Kd (amphoterin) |
| --- | --- | --- | --- |
| B1 | 75 nM |  |  |
| B2 |  | 77 nM | 40 nM |
